Data on 4 molecules can be found in patent US20250289899A1 (Genmab, published 2025).

The target of experiment [1] is T1, human CD27, full length, on cells (T cells, transfected HEK293F cells, Daudi cells, NFκB-luc2/CD27 Jurkat … (human, UniProt P26842 20-240)).
T1 construct: Residues 1-19 are stated to be the signal peptide; also called TNFRSF7
T1 sequence: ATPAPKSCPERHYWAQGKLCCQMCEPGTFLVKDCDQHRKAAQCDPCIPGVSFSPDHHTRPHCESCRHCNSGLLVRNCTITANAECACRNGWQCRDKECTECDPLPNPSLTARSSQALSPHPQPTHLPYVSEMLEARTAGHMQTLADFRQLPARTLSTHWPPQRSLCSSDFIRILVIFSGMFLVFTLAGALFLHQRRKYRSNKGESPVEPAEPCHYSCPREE
The experiment can be described thus: flow cytometry on T cells in human PBMC (endogenous CD27), PE goat anti-human IgG, median MFI PE. How it is done: (§1) Non-binding control antibody IgG1-b12-FEAR was used as negative control antibody. *N.B. IgG1-CD27-A, -B, -C, -D and -E carried mutations F405L-L234F-L235E-D265A in the IgG Fc domain, which are functionally irrelevant in the context of this experiment.
(§2) Cells were seeded in 96-Wells plates (100,000 cells per well; Greiner Bio-one, Cat #650180) for sequential incubations, with washing steps in between with FACS buffer, consisting of PBS (Lonza, Cat #BE17-517Q)+1% BSA (Roche, Cat #10735086001)+0.02% Sodium Azide (Bio-World, Cat #41920044-3). The following incubations were applied: antibody concentration series (0.0001-10 μg/mL final concentration) for 30 min at 4° C.; live/dead marker FVS510 (BD, Cat #564406, diluted 1:1,000 in PBS) for 20 min at RT; PE-labeled polyclonal goat anti-human IgG (Jackson Immuno Research, Cat #109-116-098, diluted 1:500) for 30 min at 4° C.; and anti-CD3 antibody for T-cell identification (anti-human CD3: BD, Cat #555335, diluted 1:10; anti-cyno CD3: Miltenyi, Cat #130-091-998, diluted 1:10) for 30 min at 4° C. All samples were analyzed on a FACSCelesta flow cytometer (BD) and FlowJo software. Data were processed and visualized using GraphPad Prism.
(Flow cytometry measures light scatter and fluorescence of single cells or particles in a stream.)

For experiment [2], the target named is T1, human CD27, full length, on cells (T …). The experiment in a line: flow cytometry on HEK293F cells transfected with human CD27, PE goat anti-human IgG, median MFI PE.
Experiment [3] deals with T2, cynomolgus monkey CD27, full length, on cells (cynomolgus T cells, transfected HEK293F cells) (cynomolgus monkey (Macaca fascicularis), UniProt P26842 20-260 (human entry)).
T2 construct: also called cyno CD27
T2 chain: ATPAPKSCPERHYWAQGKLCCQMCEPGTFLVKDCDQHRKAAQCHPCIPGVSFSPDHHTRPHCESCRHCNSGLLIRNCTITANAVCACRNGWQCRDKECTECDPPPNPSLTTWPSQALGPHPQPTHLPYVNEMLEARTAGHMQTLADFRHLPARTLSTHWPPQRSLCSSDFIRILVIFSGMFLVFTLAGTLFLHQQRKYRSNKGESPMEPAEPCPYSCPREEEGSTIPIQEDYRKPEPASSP
The experiment in a line: flow cytometry on T cells in cynomolgus PBMC (endogenous CD27), PE goat anti-human IgG, median MFI PE. The protocol: as §1, §2

The target of experiment [4] is T2, cynomolgus monkey CD27, full length, on …. The experiment in a line: flow cytometry on HEK293F cells transfected with cynomolgus CD27, PE goat anti-human IgG, median MFI PE. The protocol: as §1, §2
Experiment [5] has as its target T3, human C1q (from normal human serum) (human, UniProt P02745 23-245; P02746 28-253; P02747 29-245).
T3 construct: 20% normal human serum was the source of C1q
The experiment can be described thus: flow cytometry, C1q (20% normal human serum) on human T cells pre-incubated with the antibody, FITC rabbit anti-human C1q, median MFI FITC; antibody concentration varied. The protocol:
The P329R mutation was previously described to reduce interaction of IgG1 antibodies with C1q and FcgR (Overdijk et al, Molecular Cancer Therapeutics 2020). The effect of the P329R mutation on C1q binding of IgG1-CD27-A comprising the E345R mutation was tested in cellular C1q binding assays in vitro using human healthy donor T cells. Anti-HIV gp120 antibody IgG1-b12-F405L was used as non-binding isotype control antibody (ctrl). […] T cells (2×10⁶ cells/well) were pre-incubated in polystyrene 96-well round-bottom plates with antibody dilution series (8× five-fold dilution starting at 15 μg/mL final assay concentration) for 15 min at 37° C. to allow the antibodies to bind to the T cells. Then, cells were cooled on ice, supplemented with NHS as a source of human C1q (20% NHS final assay concentration) and incubated on ice for 45 min. Cells were subsequently incubated on ice with FITC-labeled Rabbit anti-human C1q antibody (DAKO, Cat #F0254; 20 μg/mL) for 30 min and resuspended in FACS buffer with TO-PRO-3 (ThermoFisher, Cat #T3605; 1:5,000 dilution). C1q binding was determined by flow cytometry measuring the FITC signal on live cells.

T3 sequence (P02745 23-245 limits assumed, chain 1 of 3): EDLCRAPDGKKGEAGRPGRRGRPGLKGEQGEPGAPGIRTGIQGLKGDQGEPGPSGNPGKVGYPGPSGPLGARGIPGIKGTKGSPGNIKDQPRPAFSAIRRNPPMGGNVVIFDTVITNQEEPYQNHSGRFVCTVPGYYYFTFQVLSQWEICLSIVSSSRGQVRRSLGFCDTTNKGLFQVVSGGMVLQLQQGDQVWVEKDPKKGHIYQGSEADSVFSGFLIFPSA
T3 sequence (P02746 28-253 limits assumed, chain 2 of 3): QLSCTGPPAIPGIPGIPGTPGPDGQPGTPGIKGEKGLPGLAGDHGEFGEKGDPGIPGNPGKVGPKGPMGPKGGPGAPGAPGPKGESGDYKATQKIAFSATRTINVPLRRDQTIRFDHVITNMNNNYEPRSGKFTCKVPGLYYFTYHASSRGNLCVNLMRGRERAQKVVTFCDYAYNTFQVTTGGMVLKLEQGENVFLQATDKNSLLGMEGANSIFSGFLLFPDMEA
T3 sequence (P02747 29-245 limits assumed, chain 3 of 3): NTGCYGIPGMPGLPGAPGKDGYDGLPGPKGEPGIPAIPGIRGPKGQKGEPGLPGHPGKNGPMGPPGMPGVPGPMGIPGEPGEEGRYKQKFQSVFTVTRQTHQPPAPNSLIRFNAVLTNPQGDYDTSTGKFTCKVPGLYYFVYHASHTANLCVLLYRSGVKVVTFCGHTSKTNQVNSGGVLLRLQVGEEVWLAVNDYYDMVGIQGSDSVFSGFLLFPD

B1: IgG1-CD27-A carrying F405L-L234F-L235E-D265A in the IgG Fc domain (antibody)
heavy: QVQLMQSGSELKKPGASVKVSCRASGYTFTTYAMNWVRQAPGQGPEWMGWINTNTGNPTYAQGFTGRFVFSLDTTVTTTYLQISSLKAEDTAVYFCAREAGSFDYWGQGTLVTVSSASTKGPSVFPLAPSSKSTSGGTAALGCLVKDYFPEPVTVSWNSGALTSGVHTFPAVLQSSGLYSLSSVVTVPSSSLGTQTYICNVNHKPSNTKVDKRVEPKSCDKTHTCPPCPAPEFEGGPSVFLFPPKPKDTLMISRTPEVTCVVVAVSHEDPEVKFNWYVDGVEVHNAKTKPREEQYNSTYRVVSVLTVLHQDWLNGKEYKCKVSNKALPAPIEKTISKAKGQPREPQVYTLPPSREEMTKNQVSLTCLVKGFYPSDIAVEWESNGQPENNYKTTPPVLDSDGSFLLYSKLTVDKSRWQQGNVFSCSVMHEALHNHYTQKSLSLSPGK
light: QSALTQPASVSGSPGQSITISCTGTSSDVYYYNYVSWYQQHPGRAPKLVIYDVSNRPSGVSNRFSGSKSGNTASLTISGLRAEDEADYYCSSYTVNRVWVFGGGTKLTVLGQPKAAPSVTLFPPSSEELQANKATLVCLISDFYPGAVTVAWKADSSPVKAGVETTTPSKQSNNKYAASSYLSLTPEQWKSHRSYSCQVTHEGSTVEKTVAPTECS
For B1, the “EC50 (read off the curve)” value is ~0.04 µg/mL in experiment [1], ~0.1 µg/mL in experiment [2], ~0.04 µg/mL in experiment [3] and ~0.06 µg/mL in experiment [4].

B2: IgG1-CD27-A (wild-type IgG1 Fc) (antibody)
heavy: not shown
light: QSALTQPASVSGSPGQSITISCTGTSSDVYYYNYVSWYQQHPGRAPKLVIYDVSNRPSGVSNRFSGSKSGNTASLTISGLRAEDEADYYCSSYTVNRVWVFGGGTKLTVLGQPKAAPSVTLFPPSSEELQANKATLVCLISDFYPGAVTVAWKADSSPVKAGVETTTPSKQSNNKYAASSYLSLTPEQWKSHRSYSCQVTHEGSTVEKTVAPTECS
notes: also called WT IgG1-CD27-A; IgG-CD27-A
B2: in experiment [5], the binding result is reported as “no binding (tested: 15 µg/mL)”.

B3: IgG1-CD27-A-E345R (antibody)
heavy: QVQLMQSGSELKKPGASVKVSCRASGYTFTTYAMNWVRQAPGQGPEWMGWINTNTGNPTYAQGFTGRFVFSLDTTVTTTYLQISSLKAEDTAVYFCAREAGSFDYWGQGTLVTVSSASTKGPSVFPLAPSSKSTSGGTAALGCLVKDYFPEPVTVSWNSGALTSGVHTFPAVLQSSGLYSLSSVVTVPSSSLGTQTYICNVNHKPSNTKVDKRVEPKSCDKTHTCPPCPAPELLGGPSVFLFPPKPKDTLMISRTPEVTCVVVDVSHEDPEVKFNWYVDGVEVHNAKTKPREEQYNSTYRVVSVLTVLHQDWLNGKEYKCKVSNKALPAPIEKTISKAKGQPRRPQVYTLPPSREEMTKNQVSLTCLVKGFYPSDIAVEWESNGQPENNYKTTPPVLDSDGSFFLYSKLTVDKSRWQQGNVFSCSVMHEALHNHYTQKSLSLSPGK
light: QSALTQPASVSGSPGQSITISCTGTSSDVYYYNYVSWYQQHPGRAPKLVIYDVSNRPSGVSNRFSGSKSGNTASLTISGLRAEDEADYYCSSYTVNRVWVFGGGTKLTVLGQPKAAPSVTLFPPSSEELQANKATLVCLISDFYPGAVTVAWKADSSPVKAGVETTTPSKQSNNKYAASSYLSLTPEQWKSHRSYSCQVTHEGSTVEKTVAPTECS
notes: also called IgG-CD27-A-E345R
For the molecule B3, the binding result in experiment [5] is recorded as “binds”.

B4: IgG1-CD27-A-E430G (antibody)
heavy: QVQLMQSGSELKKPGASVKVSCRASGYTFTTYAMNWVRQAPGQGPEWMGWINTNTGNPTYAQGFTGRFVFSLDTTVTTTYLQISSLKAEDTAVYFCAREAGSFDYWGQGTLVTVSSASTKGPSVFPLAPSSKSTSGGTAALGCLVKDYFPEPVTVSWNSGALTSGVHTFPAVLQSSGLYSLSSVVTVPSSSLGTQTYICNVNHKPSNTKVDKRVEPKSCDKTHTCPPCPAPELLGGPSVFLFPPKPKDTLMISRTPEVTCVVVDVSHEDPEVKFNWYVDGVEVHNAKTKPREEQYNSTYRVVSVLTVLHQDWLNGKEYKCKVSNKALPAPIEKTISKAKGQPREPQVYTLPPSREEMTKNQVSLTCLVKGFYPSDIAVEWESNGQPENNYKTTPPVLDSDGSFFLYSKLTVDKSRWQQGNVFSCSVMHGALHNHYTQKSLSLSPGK
light: QSALTQPASVSGSPGQSITISCTGTSSDVYYYNYVSWYQQHPGRAPKLVIYDVSNRPSGVSNRFSGSKSGNTASLTISGLRAEDEADYYCSSYTVNRVWVFGGGTKLTVLGQPKAAPSVTLFPPSSEELQANKATLVCLISDFYPGAVTVAWKADSSPVKAGVETTTPSKQSNNKYAASSYLSLTPEQWKSHRSYSCQVTHEGSTVEKTVAPTECS
Regarding B4, in experiment [5], the “EC50 (read off the curve)” value was ~0.03 µg/mL.

Usually EC50 (read off the curve) stands for the concentration that produces a half-maximal response.
